From patent publication US20220288176
Read-outs that look alike come from different tables or passages of the source.

How the values were obtained:
[1] = tested on: RIG-I (Homo sapiens); conditions: immunofluorescence co-localization with RIG-I and K63-polyubiquitin in HeLa
[2] = tested on: YTHDF2 (Homo sapiens); conditions: co-localization with RIG-I and YTHDF2 in HeLa

Row | Substance | activity [1] [%] | activity [2] [%] | activity ([2]; 10% m6A random) [%]
1 | FITC-circFOREIGN | 85.5 | 33.8 | –
2 | 10% m6A circFOREIGN | – | – | 65.3
